Target: Cry1AbMod protoxin (Bacillus thuringiensis, UniProt P0A370 1-1155)
Test: ELISA

B1: Manduca sexta cadherin protein fragment (CR7–CR12) (domain or fragment)
chain: MIDFLTGQISVNTSGAIDADTPPRFHLYYTVVASDRCSTEDPADCPPDPTYWETEGNITIHITDTNNKVPQAETTKFDTVVYIYENATHLDEVVTLIASDLDRDEIYHTVSYVINYAVNPRLMNFFSVNRETGLVYVDYETQGSGEVLDRDGDEPTHRIFFNLIDNFMGEGEGNRNQNDTEVLVILLDVNDNAPELPPPSELSWTISENLKQGVRLEPHIFAPDRDEPDTDNSRVGYEILNLSTERDIEVPELFVMIQIANVTGELETAMDLKGYWGTYAIHIRAFDHGIPQMSMNETYELIIHPFNYYAPEFVFPTNDAVIRLARERAVINGVLATVNGEFLERISATDPDGLHAGVVTFQVVGDEESQRYFQVVNDGENLGSLRLLQAVPEEIREFRITIRATDQGTDPGPLSTDMTFRVVFVPTQGEPRFASSEHAVAFIEKSAGMEESHQLPLAQDIKNHLCEDDCHSIYYRIIDGNSEGHFGLDPVRNRLFLKKELIREQSASHTLQVAASNSPDGGIPLPASILTVTVTVREADPRPVFVRELYTAGISTADSIGRELLRLHATQSEGSAITYAIDYDTMVVDPSLEAVRQSAFVLNAQTGVLTLNIQPTATMHGLFKFEVTATDTAGAQDRTDVTVYVVSSQNRVYFVFVNTLQQVEDNRDFIA
Kd: 6.8 nM

— paper PMC3969221 (2014)
